Measured values reported in paper PMC5398546.
pKd: −log10 of the molar value.

Key:
[1] = target: wild-type human serotonin 5HT1B receptor (residues 34-390) with C-terminal His10 (human) (UniProt P28222); assay: fluorescent saturation binding assay (FSBA); DDM-solubilised donitriptan-bound His-tagged 5HT1BR immobilised on Ni2+-coated 96-well plate; GFP-mini-G protein 0 to 5 μM, 90 min on ice; specific binding = minus the GFP-mini-Gs condition; apparent KD, one-site fit
[2] = target: C-terminally truncated human A2AR (residues 1-317, N154A, C-terminal His10) (human) (UniProt P29274); assay: fluorescent saturation binding assay (FSBA); DDM-solubilised His-tagged β1AR or A2AR immobilised on Ni2+-coated 96-well plate; GFP-mini-Gs 0 to 2.8 μM, 90 min on ice; specific binding = agonist minus inverse agonist condition; apparent KD, one-site fit
Chain of C-terminally truncated human A2AR (residues 1-317, N154A, C-terminal His10) (human) (P29274 1-317 N154A): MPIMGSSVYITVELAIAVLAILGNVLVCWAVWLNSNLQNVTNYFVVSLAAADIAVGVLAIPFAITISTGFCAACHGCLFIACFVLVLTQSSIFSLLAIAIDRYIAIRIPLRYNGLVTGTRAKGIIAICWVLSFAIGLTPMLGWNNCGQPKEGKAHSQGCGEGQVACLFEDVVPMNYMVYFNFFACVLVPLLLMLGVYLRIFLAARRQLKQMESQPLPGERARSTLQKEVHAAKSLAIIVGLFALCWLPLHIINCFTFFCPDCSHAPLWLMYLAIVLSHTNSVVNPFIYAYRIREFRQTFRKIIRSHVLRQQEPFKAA

Chain of wild-type human serotonin 5HT1B receptor (residues 34-390) with C-terminal His10 (human) (P28222 34-390): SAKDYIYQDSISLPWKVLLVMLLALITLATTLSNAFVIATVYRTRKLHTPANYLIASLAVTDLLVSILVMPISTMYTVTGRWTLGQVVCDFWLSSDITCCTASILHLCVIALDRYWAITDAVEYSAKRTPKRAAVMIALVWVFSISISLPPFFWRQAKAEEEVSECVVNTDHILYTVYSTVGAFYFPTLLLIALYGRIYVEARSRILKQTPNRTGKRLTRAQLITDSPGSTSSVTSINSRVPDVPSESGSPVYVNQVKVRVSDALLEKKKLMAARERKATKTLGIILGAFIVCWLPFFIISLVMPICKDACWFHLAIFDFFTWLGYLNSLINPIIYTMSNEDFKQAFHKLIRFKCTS

Row | pKd [1] | pKd [2] | Substance
1 | 6.74 |  | GFP-mini-Go1 (construct 12) (domain or fragment)
2 |  | 6.37 | GFP-mini-Gs (domain or fragment)
3 | 6.41 |  | GFP-mini-Gs/i1 (construct 43) (domain or fragment)
